Measured values from paper PMC9482650, “Quantitative fragmentomics allow affinity mapping of interactomes” (Nature Communications, 2022).

B1: CAVIN3, Q969G5 (peptide)
chain: EALLQMESVA
B2: GOT1L1, Q8NHS2 (peptide)
chain: EKKTLIGIKL

target: LNX1_1, Q8TBB1; test: holdup assay; set-up: key: below the threshold = too weak to quantify, mostly under pKd 3.1 to 4; details: plain residues with an end cap or a label only (N-terminal biotin on a linker: ado-ado)
Sequence (Q8TBB1 261-371): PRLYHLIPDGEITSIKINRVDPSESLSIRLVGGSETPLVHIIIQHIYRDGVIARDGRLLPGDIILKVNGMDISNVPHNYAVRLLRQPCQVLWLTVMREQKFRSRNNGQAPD

| Binder | pKd |
| --- | --- |
| B1 | 3.81 |
| B2 | below the threshold |

target: FRMPD3, Q5JV73; test: holdup assay; set-up: key: below the threshold = too weak to quantify, mostly under pKd 3.1 to 4; details: plain residues with an end cap or a label only (N-terminal biotin on a linker: ado-ado)
Sequence (Q5JV73 12-100): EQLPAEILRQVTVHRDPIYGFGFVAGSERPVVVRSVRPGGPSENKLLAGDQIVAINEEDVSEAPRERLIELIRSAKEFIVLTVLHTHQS

| Binder | pKd |
| --- | --- |
| B1 | below the threshold |
| B2 | below the threshold |

target: T1, GRIP1_3, Q9Y3R0; test: holdup assay; set-up: key: below the threshold = too weak to quantify, mostly under pKd 3.1 to 4; details: plain residues with an end cap or a label only (N-terminal biotin on a linker: ado-ado)
T1 sequence (Q9Y3R0 247-346, limits assumed, looked up): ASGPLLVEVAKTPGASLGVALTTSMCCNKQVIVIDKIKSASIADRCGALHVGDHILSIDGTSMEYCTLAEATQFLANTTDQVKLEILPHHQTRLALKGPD

| Binder | pKd |
| --- | --- |
| B1 | below the threshold |
| B2 | below the threshold |

target: PDZRN4_1, Q6ZMN7; test: holdup assay; set-up: key: below the threshold = too weak to quantify, mostly under pKd 3.1 to 4; details: plain residues with an end cap or a label only (N-terminal biotin on a linker: ado-ado)
Sequence (Q6ZMN7 213-318): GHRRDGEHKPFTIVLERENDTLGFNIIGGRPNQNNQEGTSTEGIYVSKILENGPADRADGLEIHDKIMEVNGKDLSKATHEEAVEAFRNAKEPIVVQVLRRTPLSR

| Binder | pKd |
| --- | --- |
| B1 | below the threshold |
| B2 | below the threshold |

target: MAGI2_6, Q86UL8; test: holdup assay; set-up: key: below the threshold = too weak to quantify, mostly under pKd 3.1 to 4; details: plain residues with an end cap or a label only (N-terminal biotin on a linker: ado-ado)
Sequence (Q86UL8 1141-1229): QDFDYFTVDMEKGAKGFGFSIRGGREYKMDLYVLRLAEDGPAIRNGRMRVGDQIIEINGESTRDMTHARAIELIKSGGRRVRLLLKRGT

| Binder | pKd |
| --- | --- |
| B1 | below the threshold |
| B2 | below the threshold |

target: GORASP1, Q9BQQ3; test: holdup assay; set-up: key: below the threshold = too weak to quantify, mostly under pKd 3.1 to 4; details: plain residues with an end cap or a label only (N-terminal biotin on a linker: ado-ado)
Sequence (Q9BQQ3 1-208): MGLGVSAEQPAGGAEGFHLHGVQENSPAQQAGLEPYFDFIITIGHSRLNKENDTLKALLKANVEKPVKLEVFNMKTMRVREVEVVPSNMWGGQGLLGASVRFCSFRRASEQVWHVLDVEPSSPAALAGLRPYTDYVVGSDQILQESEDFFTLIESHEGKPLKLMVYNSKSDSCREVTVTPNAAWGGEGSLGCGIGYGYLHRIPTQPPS

| Binder | pKd |
| --- | --- |
| B1 | below the threshold |
| B2 | below the threshold |

target: PICK1, Q9NRD5; test: holdup assay; set-up: key: below the threshold = too weak to quantify, mostly under pKd 3.1 to 4; details: plain residues with an end cap or a label only (N-terminal biotin on a linker: ado-ado)
Sequence (Q9NRD5 17-115): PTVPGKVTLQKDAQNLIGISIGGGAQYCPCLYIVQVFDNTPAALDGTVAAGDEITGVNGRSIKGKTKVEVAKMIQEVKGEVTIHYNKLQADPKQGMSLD

| Binder | pKd |
| --- | --- |
| B1 | below the threshold |
| B2 | 4.14 |

target: CASK, O14936; test: holdup assay; set-up: key: below the threshold = too weak to quantify, mostly under pKd 3.1 to 4; details: plain residues with an end cap or a label only (N-terminal biotin on a linker: ado-ado)
Sequence (O14936 487-570): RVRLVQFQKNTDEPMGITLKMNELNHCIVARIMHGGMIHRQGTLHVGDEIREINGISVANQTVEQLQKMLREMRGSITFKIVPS

| Binder | pKd |
| --- | --- |
| B1 | below the threshold |
| B2 | below the threshold |

target: T2, APBA2_2, Q99767; test: holdup assay; set-up: key: below the threshold = too weak to quantify, mostly under pKd 3.1 to 4; details: plain residues with an end cap or a label only (N-terminal biotin on a linker: ado-ado)
T2 sequence (Q99767 654-744, limits assumed, looked up): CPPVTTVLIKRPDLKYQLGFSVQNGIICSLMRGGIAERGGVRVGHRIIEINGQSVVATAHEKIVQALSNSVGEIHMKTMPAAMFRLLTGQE

| Binder | pKd |
| --- | --- |
| B1 | 3.61 |
| B2 | below the threshold |

target: T3, SNTB1, Q13884; test: holdup assay; set-up: key: below the threshold = too weak to quantify, mostly under pKd 3.1 to 4; details: plain residues with an end cap or a label only (N-terminal biotin on a linker: ado-ado)
T3 sequence (Q13884 107-205, limits assumed, looked up): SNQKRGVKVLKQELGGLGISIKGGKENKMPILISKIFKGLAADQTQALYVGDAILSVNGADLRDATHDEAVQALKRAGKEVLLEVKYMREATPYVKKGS

| Binder | pKd |
| --- | --- |
| B1 | below the threshold |
| B2 | below the threshold |

target: GRIP2_4, Q9C0E4; test: holdup assay; set-up: key: below the threshold = too weak to quantify, mostly under pKd 3.1 to 4; details: plain residues with an end cap or a label only (N-terminal biotin on a linker: ado-ado)
Sequence (Q9C0E4 446-548): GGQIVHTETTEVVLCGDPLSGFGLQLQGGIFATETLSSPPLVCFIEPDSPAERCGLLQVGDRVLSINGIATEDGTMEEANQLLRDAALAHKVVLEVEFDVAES

| Binder | pKd |
| --- | --- |
| B1 | below the threshold |
| B2 | below the threshold |

target: MAGI1_1, Q96QZ7; test: holdup assay; set-up: key: below the threshold = too weak to quantify, mostly under pKd 3.1 to 4; details: plain residues with an end cap or a label only (N-terminal biotin on a linker: ado-ado)
Sequence (Q96QZ7 1-106): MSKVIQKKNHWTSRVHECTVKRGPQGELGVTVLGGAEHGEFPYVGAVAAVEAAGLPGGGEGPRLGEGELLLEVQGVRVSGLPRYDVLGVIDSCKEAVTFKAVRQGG

| Binder | pKd |
| --- | --- |
| B1 | below the threshold |
| B2 | below the threshold |

target: SCRIB_3, Q14160; test: holdup assay; set-up: key: below the threshold = too weak to quantify, mostly under pKd 3.1 to 4; details: plain residues with an end cap or a label only (N-terminal biotin on a linker: ado-ado)
Sequence (Q14160 999-1103): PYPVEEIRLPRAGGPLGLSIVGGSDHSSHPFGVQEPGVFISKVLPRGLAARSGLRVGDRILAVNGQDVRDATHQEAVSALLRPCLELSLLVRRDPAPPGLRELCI

| Binder | pKd |
| --- | --- |
| B1 | below the threshold |
| B2 | below the threshold |

target: SNX27, Q96L92; test: holdup assay; set-up: key: below the threshold = too weak to quantify, mostly under pKd 3.1 to 4; details: plain residues with an end cap or a label only (N-terminal biotin on a linker: ado-ado)

| Binder | pKd |
| --- | --- |
| B1 | 4.13 |
| B2 | below the threshold |

target: Inadl_1, Q8NI35; test: holdup assay; set-up: key: below the threshold = too weak to quantify, mostly under pKd 3.1 to 4; details: plain residues with an end cap or a label only (N-terminal biotin on a linker: ado-ado)
Sequence (Q8NI35 113-229): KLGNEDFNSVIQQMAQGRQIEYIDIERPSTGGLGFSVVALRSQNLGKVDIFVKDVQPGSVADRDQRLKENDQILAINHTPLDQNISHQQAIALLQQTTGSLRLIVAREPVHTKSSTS

| Binder | pKd |
| --- | --- |
| B1 | below the threshold |
| B2 | below the threshold |

target: LNX1_2, Q8TBB1; test: holdup assay; set-up: key: below the threshold = too weak to quantify, mostly under pKd 3.1 to 4; details: plain residues with an end cap or a label only (N-terminal biotin on a linker: ado-ado)
Sequence (Q8TBB1 371-470): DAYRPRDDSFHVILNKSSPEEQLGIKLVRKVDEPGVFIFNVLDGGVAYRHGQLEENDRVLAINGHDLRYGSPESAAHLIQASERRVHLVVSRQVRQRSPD

| Binder | pKd |
| --- | --- |
| B1 | below the threshold |
| B2 | below the threshold |

target: DLG4_2, P78352; test: holdup assay; set-up: key: below the threshold = too weak to quantify, mostly under pKd 3.1 to 4; details: plain residues with an end cap or a label only (N-terminal biotin on a linker: ado-ado)
Sequence (P78352 155-259): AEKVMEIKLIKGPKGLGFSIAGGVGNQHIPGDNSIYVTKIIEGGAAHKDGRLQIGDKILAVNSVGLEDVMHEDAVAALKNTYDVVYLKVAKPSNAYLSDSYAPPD

| Binder | pKd |
| --- | --- |
| B1 | below the threshold |
| B2 | below the threshold |

target: T4, RADIL, Q96JH8; test: holdup assay; set-up: key: below the threshold = too weak to quantify, mostly under pKd 3.1 to 4; details: plain residues with an end cap or a label only (N-terminal biotin on a linker: ado-ado)
T4 sequence (Q96JH8 971-1071, limits assumed, looked up): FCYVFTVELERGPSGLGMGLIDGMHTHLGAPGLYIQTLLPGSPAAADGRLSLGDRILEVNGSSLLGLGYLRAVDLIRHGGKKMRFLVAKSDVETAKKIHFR

| Binder | pKd |
| --- | --- |
| B1 | below the threshold |
| B2 | below the threshold |

target: T5, PDZRN3_1, Q9UPQ7; test: holdup assay; set-up: key: below the threshold = too weak to quantify, mostly under pKd 3.1 to 4; details: plain residues with an end cap or a label only (N-terminal biotin on a linker: ado-ado)
T5 sequence (Q9UPQ7 244-349, limits assumed, looked up): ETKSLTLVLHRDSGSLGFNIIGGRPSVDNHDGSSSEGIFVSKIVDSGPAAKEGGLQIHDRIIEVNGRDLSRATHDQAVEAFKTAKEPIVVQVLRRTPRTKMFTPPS

| Binder | pKd |
| --- | --- |
| B1 | below the threshold |
| B2 | below the threshold |

target: Inadl_6, Q8NI35; test: holdup assay; set-up: key: below the threshold = too weak to quantify, mostly under pKd 3.1 to 4; details: plain residues with an end cap or a label only (N-terminal biotin on a linker: ado-ado)
Sequence (Q8NI35 1058-1167): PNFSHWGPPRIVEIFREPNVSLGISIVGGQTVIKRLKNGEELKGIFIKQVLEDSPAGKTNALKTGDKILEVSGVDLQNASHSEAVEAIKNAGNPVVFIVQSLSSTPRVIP

| Binder | pKd |
| --- | --- |
| B1 | below the threshold |
| B2 | below the threshold |

target: T6, TX1BP3, O14907; test: holdup assay; set-up: key: below the threshold = too weak to quantify, mostly under pKd 3.1 to 4; details: plain residues with an end cap or a label only (N-terminal biotin on a linker: ado-ado)
T6 sequence (O14907 10-122, limits assumed, looked up): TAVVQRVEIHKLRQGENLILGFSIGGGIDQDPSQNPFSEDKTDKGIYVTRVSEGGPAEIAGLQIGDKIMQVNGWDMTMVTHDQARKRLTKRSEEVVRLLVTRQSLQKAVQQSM

| Binder | pKd |
| --- | --- |
| B1 | below the threshold |
| B2 | below the threshold |

target: MAGI1_2, Q96QZ7; test: holdup assay; set-up: key: below the threshold = too weak to quantify, mostly under pKd 3.1 to 4; details: plain residues with an end cap or a label only (N-terminal biotin on a linker: ado-ado)
Sequence (Q96QZ7 456-580): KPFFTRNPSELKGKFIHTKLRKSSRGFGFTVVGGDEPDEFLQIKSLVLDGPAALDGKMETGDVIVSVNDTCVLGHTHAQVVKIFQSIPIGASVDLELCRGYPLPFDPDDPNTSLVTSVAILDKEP

| Binder | pKd |
| --- | --- |
| B1 | below the threshold |
| B2 | below the threshold |

target: DLG4_3, P78352; test: holdup assay; set-up: key: below the threshold = too weak to quantify, mostly under pKd 3.1 to 4; details: plain residues with an end cap or a label only (N-terminal biotin on a linker: ado-ado)
Sequence (P78352 306-403): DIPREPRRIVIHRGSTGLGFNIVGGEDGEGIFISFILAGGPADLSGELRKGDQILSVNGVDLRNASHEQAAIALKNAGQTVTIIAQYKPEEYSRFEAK

| Binder | pKd |
| --- | --- |
| B1 | below the threshold |
| B2 | below the threshold |

target: MAGI2_5, Q86UL8; test: holdup assay; set-up: key: below the threshold = too weak to quantify, mostly under pKd 3.1 to 4; details: plain residues with an end cap or a label only (N-terminal biotin on a linker: ado-ado)
Sequence (Q86UL8 915-1017): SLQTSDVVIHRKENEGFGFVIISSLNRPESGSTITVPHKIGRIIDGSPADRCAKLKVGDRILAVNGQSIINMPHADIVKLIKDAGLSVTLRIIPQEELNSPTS

| Binder | pKd |
| --- | --- |
| B1 | below the threshold |
| B2 | below the threshold |

target: T7, GRIP1_5, Q9Y3R0; test: holdup assay; set-up: key: below the threshold = too weak to quantify, mostly under pKd 3.1 to 4; details: plain residues with an end cap or a label only (N-terminal biotin on a linker: ado-ado)
T7 sequence (Q9Y3R0 568-668, limits assumed, looked up): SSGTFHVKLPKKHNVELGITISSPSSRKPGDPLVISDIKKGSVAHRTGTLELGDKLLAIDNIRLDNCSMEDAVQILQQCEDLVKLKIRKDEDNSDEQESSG

| Binder | pKd |
| --- | --- |
| B1 | below the threshold |
| B2 | below the threshold |

target: FRMPD4, Q14CM0; test: holdup assay; set-up: key: below the threshold = too weak to quantify, mostly under pKd 3.1 to 4; details: plain residues with an end cap or a label only (N-terminal biotin on a linker: ado-ado)
Sequence (Q14CM0 67-160): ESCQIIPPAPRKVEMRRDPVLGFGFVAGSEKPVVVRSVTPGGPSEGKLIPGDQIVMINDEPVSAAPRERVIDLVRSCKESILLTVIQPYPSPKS

| Binder | pKd |
| --- | --- |
| B1 | below the threshold |
| B2 | 4.47 |

target: GRIP2_7, Q9C0E4; test: holdup assay; set-up: key: below the threshold = too weak to quantify, mostly under pKd 3.1 to 4; details: plain residues with an end cap or a label only (N-terminal biotin on a linker: ado-ado)
Sequence (Q9C0E4 934-1023): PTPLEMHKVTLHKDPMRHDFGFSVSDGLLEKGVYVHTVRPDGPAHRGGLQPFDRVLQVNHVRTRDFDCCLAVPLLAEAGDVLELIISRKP

| Binder | pKd |
| --- | --- |
| B1 | below the threshold |
| B2 | below the threshold |

target: SCRIB_2, Q14160; test: holdup assay; set-up: key: below the threshold = too weak to quantify, mostly under pKd 3.1 to 4; details: plain residues with an end cap or a label only (N-terminal biotin on a linker: ado-ado)
Sequence (Q14160 857-960): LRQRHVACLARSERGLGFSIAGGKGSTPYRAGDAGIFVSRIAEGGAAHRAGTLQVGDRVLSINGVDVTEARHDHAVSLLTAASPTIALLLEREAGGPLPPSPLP

| Binder | pKd |
| --- | --- |
| B1 | below the threshold |
| B2 | below the threshold |

target: IL16_4, Q14005; test: holdup assay; set-up: key: below the threshold = too weak to quantify, mostly under pKd 3.1 to 4; details: plain residues with an end cap or a label only (N-terminal biotin on a linker: ado-ado)
Sequence (Q14005 1229-1329): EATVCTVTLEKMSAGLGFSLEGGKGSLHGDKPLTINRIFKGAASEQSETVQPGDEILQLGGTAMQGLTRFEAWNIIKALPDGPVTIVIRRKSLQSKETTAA

| Binder | pKd |
| --- | --- |
| B1 | below the threshold |
| B2 | below the threshold |

target: LNX1_3, Q8TBB1; test: holdup assay; set-up: key: below the threshold = too weak to quantify, mostly under pKd 3.1 to 4; details: plain residues with an end cap or a label only (N-terminal biotin on a linker: ado-ado)
Sequence (Q8TBB1 500-596): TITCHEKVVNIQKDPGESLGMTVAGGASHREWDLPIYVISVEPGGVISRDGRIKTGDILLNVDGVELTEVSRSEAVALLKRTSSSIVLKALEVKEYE

| Binder | pKd |
| --- | --- |
| B1 | below the threshold |
| B2 | below the threshold |
